Assay results from publication PMC8956599.

Molecular target: T1, translation initiation factor IF3 (Escherichia coli) (UniProt P0A707)
T1 sequence: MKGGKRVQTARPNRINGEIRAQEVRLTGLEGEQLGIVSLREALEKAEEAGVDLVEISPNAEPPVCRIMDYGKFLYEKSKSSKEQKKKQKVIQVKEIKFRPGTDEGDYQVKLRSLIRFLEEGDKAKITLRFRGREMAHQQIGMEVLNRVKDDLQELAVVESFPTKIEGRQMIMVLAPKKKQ
Assay: fluorescence anisotropy
Details: Binding buffer and temperature not given in material; EMSA gels in Tris/acetate or Tris/borate; anisotropy with 200 nM RNA and DFHBI-1T; protein storage buffer …

“GGGUGGUAACUAGCCAAGCAGCUAGUUACCAAAUCGGGAGAAUCCCGGGUCCUCUCUUUAGGGGGAGGUCCCUGGGCCGAAGCCCGCCCACCUUUCGGUGGAGCCGGACCGCUUUCGCACCCGUGCUCUUUCGAGCACACCCACCCCGUUUACGGGGGUCCCUCGGUCAGCUACCGAGGAGUUGCCAUGUGUAUGUGGGAGACGGUCGGGUCCAGAUAUUCGUAUCUGUCGAGUAGAGUGUGGGCUCCCACAUACUCUGAUGAUCCUUCGGGAUCAUUCAUGGCAAAAACCUCCUAGGAAUGGAAUUCCGGCUACCUACAGCGAUAGCCAUGGUAGCGUCUCGCUAAAGACAUUAAAAAUGGCAUUAGCUCGACAGGAAGUUGAGCAGGACCCCGAAAGGGGUCCCACCC [[F30-Bro(+)]UTR(-)]” gave a Kd of 3.5 µM.
